Reference: US8722052B2, “Vaccinia virus protein A46 peptide and use thereof” (priority 2008, dated 2014)

Columns and labels:
RAW264.7 cells = test: MTT cell viability assay, RAW264.7; assay type: cell-based, murine
Experimental: FIGS. 5A and B are bar charts showing the dose-dependent inhibitory effect of A464R on LPS-induced TNFα in murine RAW264.7 cells. A464 (SEQ ID NO. 20) was added to the cells at a concentration of 5, 20 or 50 μM 1 hour before stimulating with 100 ng/ml LPS. Supernatant was collected 24 hours after stimulation and assayed for TNFα by ELISA (A) and cells were assayed for viability by the MTT assay (B.). No peptides were added to the control wells (black bars). Data is representative of at least three experiments each performed in triplicate and is expressed as mean±s.d;
FIGS. 10A and B are bar charts showing the effect of A464 on poly(I:C)-induced TNFα in murine RAW264.7 cells. Cells were seeded in 96 well plates (1.5×10^5 cells/nil) 24 hours before treatment. A464 (SEQ ID NO. 20) was added to the cells at a concentration of 5, 20 or 50 μM 1 hour before stimulating with 25 μg/ml Poly(I:C). […] Data is representative of at least three experiments each performed in triplicate and is expressed as mean±s.d;
Cell viability was measured by assessing mitochondrial function using an MTT (3-(4,5-Dimethylthiazol-2-yl)-2,5-diphenyltetrazolium bromide) assay. […] MTT was then removed and 200 μl per well of dimethyl sulphoxide (DMSO) was added and cells incubated for 20 min at 37° C. in the dark, prior to absorbance being read at 595 nm on a spectrophotometer.

TLR4 = test: LPS-induced NFκB reporter assay in HEK293_TLR4 cells; assay type: cell-based, human; settings: peptide 5 or 25 μM added 2 or 9 hours after 10 ng/ml LPS
TLR4, sequence (O00206 24-839): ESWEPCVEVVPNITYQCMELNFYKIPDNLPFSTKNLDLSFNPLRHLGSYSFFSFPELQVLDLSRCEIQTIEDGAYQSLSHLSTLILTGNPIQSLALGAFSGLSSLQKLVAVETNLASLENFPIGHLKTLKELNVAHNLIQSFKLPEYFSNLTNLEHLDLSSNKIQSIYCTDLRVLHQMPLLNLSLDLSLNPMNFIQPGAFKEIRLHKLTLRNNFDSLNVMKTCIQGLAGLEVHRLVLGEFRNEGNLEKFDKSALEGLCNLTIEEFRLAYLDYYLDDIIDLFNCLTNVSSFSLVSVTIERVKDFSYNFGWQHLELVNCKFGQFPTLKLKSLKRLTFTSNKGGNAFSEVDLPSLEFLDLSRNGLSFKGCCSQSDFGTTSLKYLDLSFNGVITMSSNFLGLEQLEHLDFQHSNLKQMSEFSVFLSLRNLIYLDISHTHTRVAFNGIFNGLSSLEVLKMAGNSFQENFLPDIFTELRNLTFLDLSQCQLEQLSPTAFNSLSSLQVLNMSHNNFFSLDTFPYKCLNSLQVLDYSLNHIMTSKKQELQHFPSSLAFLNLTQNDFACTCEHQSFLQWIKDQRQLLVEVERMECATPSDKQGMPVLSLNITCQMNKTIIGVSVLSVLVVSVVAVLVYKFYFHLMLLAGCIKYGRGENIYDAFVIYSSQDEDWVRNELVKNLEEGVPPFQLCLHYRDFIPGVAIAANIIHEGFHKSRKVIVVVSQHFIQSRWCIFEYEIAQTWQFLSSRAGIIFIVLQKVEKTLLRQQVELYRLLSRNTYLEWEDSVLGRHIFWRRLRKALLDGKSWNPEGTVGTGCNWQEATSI
TLR4, sequence (Q9Y6Y9 17-160 partner limits assumed): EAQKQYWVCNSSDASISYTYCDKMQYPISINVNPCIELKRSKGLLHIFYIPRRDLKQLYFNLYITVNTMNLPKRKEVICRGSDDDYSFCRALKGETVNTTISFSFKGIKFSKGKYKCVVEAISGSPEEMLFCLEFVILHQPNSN
Experimental: FIGS. 20A and B are bar charts showing the effect of shortened A464 peptides with deletions of N- and C-terminal amino acids on TLR4- and TLR3-induced NFκB activation in HEK293 cells. HEK293_TLR4 (A) and HEK293_TLR3 (B) cells were seeded in 96 well plates (1.5×10^5 cells/ml) 24 hours before transfection with the plasmid DNA. Cells were transfected with 60 ng NFκB-Luciferase and 20 ng of TK-Renilla reporter genes, as in FIG. 11. A464N-2 (SEQ ID NO. 41) and A464C-3 (SEQ ID NO. 42) peptides were added to the cells at a concentration of 1, 5 or 25 μM the next day and cells were stimulated with either 10 ng/ml LPS (A) or 25 μg/ml Poly(I:C) (B) 1 hour after treatment with peptides. Cells were harvested and assayed for NFκB activation by reporter gene assay 6 hours after stimulation with the agonists. No peptides were added to the control wells (black bars). Data is representative of three experiments each performed in triplicate and is expressed as mean fold induction±s.d. relative to control levels;
FIGS. 24A and B are bar charts showing the effect of A464 on ligand-independent TLR4 signalling in HEK293 cells. HEK293_TLR4 cells were seeded in 96 well plate (1.5×10^5 cells/ml) 24 hours before transfection with NFκB-luciferase and TK-Renilla reporter gene plasmids. NFκB activation was stimulated by transfecting either 50 or 100 ng of CD4/TLR4-encoding plasmid or by stimulating with 10 ng/ml LPS. The total amount of plasmid DNA transfected into the cells was made up to 230ng by adding pcDNA. A464 (SEQ ID NO. 20) was added to the cells at a concentration of 5 or 25 μM 2 hours (A) or 9 hours (B) after the transfection or LPS-stimulation. Cells were harvested and assayed for NFκB activation by reporter gene assay 24 hours post-transfection. No peptides were added to the control wells (black bars). Data is representative of two experiments, each performed in triplicate and is expressed as mean fold induction±s.d. relative to control levels;
HEK293 cells were transfected using GeneJuice® a proprietary non-toxic transfection reagent. […]

KYSFKLILAEYRRRRRRRRR [Peptide A464] was tested, and the “toxicity (MTT) in the presence of LPS” value (RAW264.7 cells; 100 ng/ml LPS, 24 h) was “no toxicity at the concentrations of 5 and 20 μM”, the “toxicity (MTT) in the absence of LPS” value (RAW264.7 cells; no LPS) was “some cytotoxicity at 20 μM” and the “inhibition of LPS-induced NFκB activation” value (TLR4) was “capable of inhibiting LPS-induced NFκB activation”.
